Assay results: publication PMC3279696

Molecular target: NLGN-1ΔAB-Fc (neuroligin-1 lacking splice inserts A and B, residues Q46-S693, with a C-terminal Fc domain) (UniProt Q62765)
Test: SPR

In the case of “β-NRXN-1 (ΔSS#4), soluble recombinant (domain or fragment)”, the Kd is reported as 30 nM.
